Assay results reported in the supplement of paper PMC7877785.
± gives the uncertainty stated by the source.

Assay: self-splicing fitness, log relative to wild type (ln ratio); higher = more splicing; Tetrahymena group I intron in knt gene, E. coli kanamycin selection, DiMSum; sequences stand for … in CUCUCU…GGAGGGAAAAGUUAUCAGGCAUGCACCUGGUAGCUAGUCUUUAAACCAAUAGAUUGCAUCGGUUUAAAAGGCAAGACCGUCAAAUUGCGGGAAAGGGGUCAACAGCCGUUCAGUACCAAGUCUCAGGGGAAACUUUGAGAUGGCCUUGCAAAGGGUAUGGUAAUAAGCUGACGGACAUGGUCCUAACCACGCAGCCAAGUCCUAAGUCAACAGAUCUUCUGUUGAUAUGGAUGCAGUUCACAGACUAAAUGUCGGUCGGGGAAGAUGUAUUCUUCUCAUAAGAUAUAGUCGGACCUCUCCUUAAUGGGAGCUAGCGGAUGAAGUGAUGCAACACUGGAGCCGCUGGGAACUAAUUUGUAUGCGAAAGUAUAUUGAUUAGUUUUGGAGUACUCGUGGUCG
Method in brief: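 A randomised library covering all eight P1ex-region intron nucleotides was built with the intron in the knt kanamycin-resistance gene on pET-22b(+) and held in E. coli BL21(DE3). Cells were grown overnight at 37°C or 30°C on LB agar, with or without 25 μg/mL kanamycin, plus 100 μg/mL carbenicillin, 50 μM IPTG and 0.2% rhamnose, and pooled colonies were amplicon-sequenced on an Illumina HiSeq 2500. DiMSum fitness is the error-weighted combination of wild-type-normalised replicate fold changes, kanamycin versus none.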

UGACAGCAAUAUUACGCCCC
self-splicing fitness (ln) (30 °C): -0.414 ± 0.17
self-splicing fitness (ln) (37 °C): -0.391 ± 0.26

AGAGAGCAAUAUUACGGUAG
self-splicing fitness (ln) (30 °C): -1.46 ± 0.12
self-splicing fitness (ln) (37 °C): -2.18 ± 0.19

AAUAAGCAAUAUUACGGUGA
self-splicing fitness (ln) (30 °C): -1.18 ± 0.093
self-splicing fitness (ln) (37 °C): -0.256 ± 0.11

GGGGAGCAAUAUUACGAAAC
self-splicing fitness (ln) (30 °C): -3.15 ± 0.42
self-splicing fitness (ln) (37 °C): -0.654 ± 0.3

UUGGAGCAAUAUUACGUUGA
self-splicing fitness (ln) (30 °C): -3.57 ± 0.3
self-splicing fitness (ln) (37 °C): -0.895 ± 0.26

UGCGAGCAAUAUUACGAGUG
self-splicing fitness (ln) (30 °C): -2.85 ± 0.17
self-splicing fitness (ln) (37 °C): -2.32 ± 0.28

AAGCAGCAAUAUUACGGAUG
self-splicing fitness (ln) (30 °C): -3.17 ± 0.2
self-splicing fitness (ln) (37 °C): -2.57 ± 0.2

AGCCAGCAAUAUUACGCUAC
self-splicing fitness (ln) (30 °C): -2.52 ± 0.18
self-splicing fitness (ln) (37 °C): -0.749 ± 0.17

GCCGAGCAAUAUUACGAGCU
self-splicing fitness (ln) (30 °C): -2.84 ± 0.26
self-splicing fitness (ln) (37 °C): -3.15 ± 0.33

CCGAAGCAAUAUUACGUCGA
self-splicing fitness (ln) (30 °C): -2.38 ± 0.17
self-splicing fitness (ln) (37 °C): -1.74 ± 0.12

GCCCAGCAAUAUUACGGGGA
self-splicing fitness (ln) (30 °C): -0.813 ± 0.082
self-splicing fitness (ln) (37 °C): -0.181 ± 0.099

AGCUAGCAAUAUUACGACUU
self-splicing fitness (ln) (30 °C): -0.59 ± 0.11
self-splicing fitness (ln) (37 °C): -0.0618 ± 0.12

CACGAGCAAUAUUACGGGUG
self-splicing fitness (ln) (30 °C): -3.79 ± 0.21
self-splicing fitness (ln) (37 °C): -2.25 ± 0.18

AACAAGCAAUAUUACGACAA
self-splicing fitness (ln) (30 °C): -1.28 ± 0.12
self-splicing fitness (ln) (37 °C): -1.18 ± 0.098

UACUAGCAAUAUUACGGGUC
self-splicing fitness (ln) (30 °C): -2.68 ± 0.21
self-splicing fitness (ln) (37 °C): -2.29 ± 0.26

CGGGAGCAAUAUUACGAAGU
self-splicing fitness (ln) (37 °C): -1.89 ± 0.43

UUCCAGCAAUAUUACGUCUG
self-splicing fitness (ln) (30 °C): -2.71 ± 0.15
self-splicing fitness (ln) (37 °C): -2.28 ± 0.24

AAUUAGCAAUAUUACGGUAA
self-splicing fitness (ln) (30 °C): -2.72 ± 0.2
self-splicing fitness (ln) (37 °C): -0.655 ± 0.22

UCAGAGCAAUAUUACGGGCC
self-splicing fitness (ln) (30 °C): -3.69 ± 0.44

AACUAGCAAUAUUACGAUCG
self-splicing fitness (ln) (30 °C): -0.822 ± 0.074
self-splicing fitness (ln) (37 °C): 0.0491 ± 0.1

AACGAGCAAUAUUACGGCAG
self-splicing fitness (ln) (37 °C): -3.6 ± 0.36

ACGCAGCAAUAUUACGUGGU
self-splicing fitness (ln) (30 °C): -4.06 ± 0.12
self-splicing fitness (ln) (37 °C): -2.58 ± 0.091

UGUCAGCAAUAUUACGCCUG
self-splicing fitness (ln) (30 °C): 0.351 ± 0.072
self-splicing fitness (ln) (37 °C): 0.582 ± 0.11

UUGGAGCAAUAUUACGCUCA
self-splicing fitness (ln) (30 °C): -1.16 ± 0.15
self-splicing fitness (ln) (37 °C): -1.53 ± 0.24

AGAUAGCAAUAUUACGCGUG
self-splicing fitness (ln) (30 °C): -1.44 ± 0.1
self-splicing fitness (ln) (37 °C): -1.01 ± 0.12

UAUAAGCAAUAUUACGACCA
self-splicing fitness (ln) (30 °C): -0.816 ± 0.092
self-splicing fitness (ln) (37 °C): 0.038 ± 0.12

ACAAAGCAAUAUUACGAAGU
self-splicing fitness (ln) (30 °C): -2.04 ± 0.12
self-splicing fitness (ln) (37 °C): -2.06 ± 0.18

CCGUAGCAAUAUUACGUAAC
self-splicing fitness (ln) (30 °C): -4.68 ± 0.46
self-splicing fitness (ln) (37 °C): -0.709 ± 0.24

GGUCAGCAAUAUUACGGAGU
self-splicing fitness (ln) (30 °C): -0.947 ± 0.086
self-splicing fitness (ln) (37 °C): 0.0968 ± 0.12

AGUUAGCAAUAUUACGGCCU
self-splicing fitness (ln) (30 °C): -0.544 ± 0.11
self-splicing fitness (ln) (37 °C): 0.22 ± 0.13

CGCAAGCAAUAUUACGGGUC
self-splicing fitness (ln) (30 °C): -3.87 ± 0.23
self-splicing fitness (ln) (37 °C): -3.77 ± 0.28

AGUUAGCAAUAUUACGAUAA
self-splicing fitness (ln) (30 °C): -2.31 ± 0.21
self-splicing fitness (ln) (37 °C): -0.658 ± 0.22

CGUAAGCAAUAUUACGCAAU
self-splicing fitness (ln) (30 °C): -3.61 ± 0.24
self-splicing fitness (ln) (37 °C): -2.64 ± 0.23

AAGGAGCAAUAUUACGGGUA
self-splicing fitness (ln) (30 °C): -2.64 ± 0.24
self-splicing fitness (ln) (37 °C): -2.3 ± 0.46

CUGCAGCAAUAUUACGUUGG
self-splicing fitness (ln) (30 °C): -2.82 ± 0.14
self-splicing fitness (ln) (37 °C): -3.09 ± 0.27

ACCCAGCAAUAUUACGGUCA
self-splicing fitness (ln) (30 °C): -1.55 ± 0.067
self-splicing fitness (ln) (37 °C): -0.429 ± 0.069

CUUGAGCAAUAUUACGGGAU
self-splicing fitness (ln) (30 °C): -2.99 ± 0.32
self-splicing fitness (ln) (37 °C): -2.63 ± 0.31

UAUUAGCAAUAUUACGUACG
self-splicing fitness (ln) (30 °C): -0.0813 ± 0.071
self-splicing fitness (ln) (37 °C): -0.262 ± 0.09
